The values that follow come from patent US20210253643A1 (UNIVERSITY OF BRITISH COLUMBIA, published 2021).

This assay concerns the target T1, FhuA (E. coli, UniProt P06971 34-747).
T1 construct: also called FhuA receptor; FhuA transporter
T1 sequence (looked up): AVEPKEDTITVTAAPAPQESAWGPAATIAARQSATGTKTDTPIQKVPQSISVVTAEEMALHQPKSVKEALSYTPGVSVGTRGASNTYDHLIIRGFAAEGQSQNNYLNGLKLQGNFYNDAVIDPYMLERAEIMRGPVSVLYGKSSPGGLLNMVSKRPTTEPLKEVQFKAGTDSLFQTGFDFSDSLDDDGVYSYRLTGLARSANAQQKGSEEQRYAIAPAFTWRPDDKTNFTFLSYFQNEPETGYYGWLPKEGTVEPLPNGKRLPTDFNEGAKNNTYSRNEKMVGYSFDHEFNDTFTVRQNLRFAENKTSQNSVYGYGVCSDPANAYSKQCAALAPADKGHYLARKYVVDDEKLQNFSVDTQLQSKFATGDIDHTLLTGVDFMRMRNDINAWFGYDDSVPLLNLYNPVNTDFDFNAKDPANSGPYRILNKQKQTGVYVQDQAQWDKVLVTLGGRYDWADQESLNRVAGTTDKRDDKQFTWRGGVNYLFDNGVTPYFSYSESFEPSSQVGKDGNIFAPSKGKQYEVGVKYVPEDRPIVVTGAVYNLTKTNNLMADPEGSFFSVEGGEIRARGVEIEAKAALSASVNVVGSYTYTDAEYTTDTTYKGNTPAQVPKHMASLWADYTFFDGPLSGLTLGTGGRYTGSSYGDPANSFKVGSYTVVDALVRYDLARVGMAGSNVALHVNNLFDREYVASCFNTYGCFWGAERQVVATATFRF
Put plainly: CN-PAGE band shift, Coomassie: about 2 µg FhuA in MSPL156 nanodisc with 5 µg colicin M, 5 min at room temperature, without and with ferricrocin.

B1: Colicin M (other)
chain: METLTVHAPSPSTNLPSYGNGAFSLSAPHVPGAGPLLVQVVYSFFQSPNMCLQALTQLEDYIKKHGASNPLTLQIISTNIGYFCNADRNLVLHPGISVYDAYHFAKPAPSQYDYRSMNMKQMSGNVTTPIVALAHYLWGNGAERSVNIANIGLKISPMKINQIKDIIKSGVVGTFPVSTKFTHATGDYNVITGAYLGNITLKTEGTLTISANGSWTYNGVVRSYDDKYDFNASTHRGIIGESLTRLGAMFSGKEYQILLPGEIHIKESGKR
notes: also called ColM; His-tagged Colicin M
With B1, the binding result is “binds”.
